These results are taken from the nanobody polyreactivity screen of Harvey et al. (2022).

This series is described as follows: yeast display, Sf9 membrane polyspecificity reagent, FACS + sequencing; frameworks hold sequencing errors. The essentials: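 Genes from sorted yeast were amplified by colony PCR, read by MiSeq 2 × 250 sequencing and filtered on CDR length. These cells carried a synthetic nanobody library in Saccharomyces cerevisiae BJ5465 and were sorted by FACS into low and high (top ~1%) gates on anti-HA and streptavidin fluorescence. Polyreactivity is labelled according to the gate of origin.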
Consider “QVQLVESGGGLVHAGGSLRLSFAASGRTFTLNAMGWYRQAPGKEREFVAAISNSGVRTYYADSVKGRFTISRDNAKNTVYLQMNSLTPEDTAVYYCDGTYQVGDSIDDYWGQGTQVTVSS”, for which the “polyreactivity (PSR sort gate)” value is on record as “low polyreactivity”.

With “QVQLVESGGGLVHAGGSLRVSCAASGSISDSYAMGWYREAPGKERELVAAITSGDSTYYADSVKGRFTISLDNAKNTVYLQMNSVKPEDTAVYYSAKRVSRVRGYGFTDWSEYDYWGQGTQVTVSS”, the “polyreactivity (PSR sort gate)” value is listed as “low polyreactivity”.

Take “QVQLVESGGGLVHAGGSLSLSCAASGRTFTSNAMGWYRQAPGKERELVATINGGVSTYYADSVKGRFTISRDNAKNTVYLQMNSLKPEDTAVYYCARDAYDADPSLWYYTYDYWGQGTQVTVSS”: the “polyreactivity (PSR sort gate)” value was “low polyreactivity”.

Turning to “QVQLVESGGGLVHAGGSLSLSCAASGSTLRAYTMGWYRQSPGKERELVATITRRGGTTYYADSVKGRFTISRDNAKNTVYLQMNSLKPEDTAVYYCAAKWYSTHRYDYWGQGTQVTVSS”, the “polyreactivity (PSR sort gate)” value was “high polyreactivity”.

In the case of “QVQLVESGGGLVHARGSLRLSCAASGCTFVRNAMGWYRPAPGKERELGAAITSRGGSTYYADSVKGRFTISRDNAKNTVYLQMNSLKPEDTAVYYCAARFGVKRGQYDFWGQGTQVTVSS”, the “polyreactivity (PSR sort gate)” value was “high polyreactivity”.

For the sequence “QVQLVESGGGLVHEGRSLRLSCAASGSKYSYDAMGWYRQAPGTERELVPTISWRGRTYYADSVKGRFTISRDNAKNTVYLKMISLKPEDTAVYYCNTKSLYGRSRGYPYDYWGQGTQVTVSS”, the “polyreactivity (PSR sort gate)” value is “high polyreactivity”.

As for “QVQLVESGGGLVHSGRSLRLSCAASGSISCHYAMGWYRTAHGKERDLLAAIDSSGGIKYYADSVKGRFTISRDNSKNTVYLQMNSLKPEDTAVYYCAAVFLLFGFEWSYDYWGQGTQVTVSS”, the “polyreactivity (PSR sort gate)” value was “low polyreactivity”.

With “QVQLVESGGGLVKAGCSLRLSCADSGFIFSSYAMGWYRQAPGIERELVAAITRSGGITYYADSLKGRFTISRDNAKITVYLQMNSLKPEDTAVYYCAARWRYYRGYSRQRPYEFDYWGQGTQVTVSA”, the “polyreactivity (PSR sort gate)” value was “high polyreactivity”.

Consider “QVQLVESGGGLVKAGGSLRISCAASGSIFTPYTMGWYRQAPGKERELVAAISSGDSTYYADSVKGRFTISRDNAKKTVYLQMNSLKPEDTAVYYCAADYRYDYDYWGQGTQVTVSS”, for which the “polyreactivity (PSR sort gate)” value was “low polyreactivity”.

“QVQLVESGGGLVKAGGSLRLICAASGSTFGGNDKGWYRHAPGKERELVDAISSGTSTNYADSVKGRFTISRDNAMNTVYLQMNSLKPEDTAVYYCNAGFWYRRTYDYWGQGTQVTVSS”: the “polyreactivity (PSR sort gate)” value is recorded as “low polyreactivity”.

On to “QVQLVESGGGLVKAGGSLRLSCAASGFIFNGYAMGWYRQAPGKESELVAAINSGGITHYADSVKGRFTISRDNAKNTVYLQMNSLKPEDTAVYYCAAVRTGYYRQYDYWGQGTQVTVSS”, for which the “polyreactivity (PSR sort gate)” value is “high polyreactivity”.

As to “QVQLVESGGGLVKAGGSLRLSCAASGFIFRYYAMGWYRQAPGKERELVAAITSTGRTYYADSVKGRFTISRDNAKNTVYLQMNSLKPEDTAVYYCAKRSYPWGQGTQVTVSS”, the “polyreactivity (PSR sort gate)” value is reported as “low polyreactivity”.

With “QVQLVESGGGLVKAGGSLRLSCAASGFIFVYYAMGWYRQAPGKERELVARISWRGGRTYYADSVKGRFTISRDNAKNTVYLQMNSLKPEDTAVYYCNADFWNSHVWYDYWGQGTQVTVSS”, the “polyreactivity (PSR sort gate)” value is given as “high polyreactivity”.

Consider “QVQLVESGGGLVKAGGSLRLSCAASGFTFYLNAMGWSRQAPGKERELVAGISWRGGRTYYADSVKGRFTISRDNAKITVYVQLNSLKPEDTAVYYCAAVTYSFQKTDYYWGQGTQVTVSA”, for which the “polyreactivity (PSR sort gate)” value was “high polyreactivity”.

Consider “QVQLVESGGGLVKAGGSLRLSCAASGINFYRYAMGWYRQAPGKERELVAAITWSGVSTSYADSVKGRFTISRDNAKKTVYLQMNSLKPEDTAVYYCNTDPGTLYGDMDSWGQGTQVTVSS”, for which the “polyreactivity (PSR sort gate)” value was “low polyreactivity”.

As for “QVQLVESGGGLVKAGGSLRLSCAASGITFSYYTMGWYRQAPGKEREFVATISQSSGSTYYADSVKGRFTISRDNAKNTVYLQMNSLKPEDTAVYYCNARRDYEWESWNVDDDYWGQGTQVTVSS”, the “polyreactivity (PSR sort gate)” value is “high polyreactivity”.

Take “QVQLVESGGGLVKAGGSLRLSCAASGLISYPYSMGWYRQSPWKERELVAAITSRGTSTYYADSVKGRFTISRDNAKYTVYLHMNSLKPEDTAVYYCNAVVWRSRVDYYYWGQGTQVTVSS”: the “polyreactivity (PSR sort gate)” value is reported as “high polyreactivity”.

As to “QVQLVESGGGLVKAGGSLRLSCAASGNTFGRNVMGWYRPAPGKERELVAAINRGGSTTYADSVKGRFTISRDNAKNTVYLQMNSLKPEDTAVYYCNAEIRGQSYRFDYWGQGTQVTVSS”, the “polyreactivity (PSR sort gate)” value is on record as “high polyreactivity”.

Regarding “QVQLVESGGGLVKAGGSLRLSCAASGRIFYGYAMGWYRQAPGKERELVAAITRSGTSTYYADSVKGRFTISRDNAKNTVYLQMHSLKPEDTAVYYCAAVERSLRSPYGDYGYWGHGTQVTVSS”, the “polyreactivity (PSR sort gate)” value is given as “high polyreactivity”.

Turning to “QVQLVESGGGLVKAGGSLRLSCAASGRIFYTNDMGWYSQAPGKERELVATISSTGSTNYADSVKGRFTISRDNAKNTVYLEMNSLKPEDTAVYYCAADRSYFLRCIIYDYWGQGTQVTVSS”, the “polyreactivity (PSR sort gate)” value was “low polyreactivity”.

Turning to “QVQLVESGGGLVKAGGSLRLSCAASGRTFLRNAMGWYRQAPGKERELVATITRGGSTYYADSVKGRFTISRDNAKNSVYLQMNSLKPEDTAVYYCAKDITGGFRRPDYGYWGQGTQVTVSS”, the “polyreactivity (PSR sort gate)” value is given as “low polyreactivity”.

For “QVQLVESGGGLVKAGGSLRLSCAASGSIFGGYAMGCYRQAPGKERELVAAISYRGASTYYADSVKWRFTISRDNAKNTVYLQMNSLKPEDTAVYYCAVAARTRARVLYGYDYWGQGTQVTVSS”, the “polyreactivity (PSR sort gate)” value is “low polyreactivity”.

With “QVQLVESGGGLVKAGGSLRLSCAASGSNFNPYAMGWYRQEPGKQRELVAAITGSGRSTYNSDSVKGRFTISRDNAKNTVYLEMNSLKPEDTAVYYCNRARILVWSKYGYWGQGTQVTVSS”, the “polyreactivity (PSR sort gate)” value was “high polyreactivity”.

As to “QVQLVESGGGLVKAGGSLRLSCAASGSSFSSYAMGWYREAPGKEWELVAAISGGGNTYYADSVKGRFTISSDNAKNTVYLQMNSLKPEDTAVYYCNKSRLEPEYGYWGQGTQVTVSS”, the “polyreactivity (PSR sort gate)” value is on record as “low polyreactivity”.

Take “QVQLVESGGGLVKAGGSLRLSCAASGSTFDWYAMGWYRQAPGKERELVAAITWRGDSTNYADSVKGRFTISRDNAKNTVYLQMNSLKPEDTAVYYCATGKTYRDDYWGQGTQVTVSS”: the “polyreactivity (PSR sort gate)” value was “high polyreactivity”.

Take “QVQLVESGGGLVKAGGSLRLSCAASGSTFPYYAMGWYRQAPGTEREFVAAISSSGGSTYYADSVKGRFTISRDNAKNTVYLQMNSLKPEDTAVYYFAAQGARRNYYRYGTYTNRRYDYWGQGTQVTVSS”: the “polyreactivity (PSR sort gate)” value is “high polyreactivity”.

On to “QVQLVESGGGLVKAGGSLRLSCAASGSTFRRYAMGWYRLAPGKERELVAAITIGGSTYYADSVKGRFTISRDNAKNTVKLKMNSLKPEDTAVYSCNAGKTYLGDYWGQGTQVTVSS”, for which the “polyreactivity (PSR sort gate)” value was “high polyreactivity”.

Consider “QVQLVESGGGLVKAGGSLRLSCAASGSTFYAYAMGWSRQAPGKERELVAAISSSGGSTYYADSVKGRFTISRDNAKNTVYLQMNSLKPEDTAVYYCAAYDSVQIYWILGFDYWGQGSQVTVSS”, for which the “polyreactivity (PSR sort gate)” value was “low polyreactivity”.

With “QVQLVESGGGLVKAGGSLRLSCAASGYTYPLYAMGWYRQAPGKEMELVADINIGGASTYYADSVKGRFTISRDNAKNTVYLQMNSLKPEDTAVYDCAKEYYDGYFPTFDYDYWGQGTQVTVSS”, the “polyreactivity (PSR sort gate)” value is reported as “low polyreactivity”.

For the sequence “QVQLVESGGGLVKAGGSLRLSCAATGRIFEYNTMGWYRQAPGKERELVAAITGGTGSTYYADSVKGRFTISRDNAKNTVYLKMNSLKPEDTAVYYCAADYTSPAFYSSFDYWGQGTQVTVSS”, the “polyreactivity (PSR sort gate)” value is “low polyreactivity”.
